Reference: US20060159616

Columns and labels:
[1] = biological target: T1, V-P-R-AMC fluorogenic substrate
T1 chain: VPR

[2] = biological target: T2, F-S-R-AMC fluorogenic substrate
T2 chain: FSR

B1: recombinant hK13 protein (active form of human kallikrein 13, produced in Pichia pastoris) (protein)
chain: VLNTNGTSGFLPGGYTCFPHSQPWQAALLVQGRLLCGGVLVHPKWVLTAAHCLKEGLKVYLGKHALGRVEAGEQVREVVHSIPHPEYRRSPTHLNHDHDIMLLELQSPVQLTGYIQTLPLSHNNRLTPGTTCRVSGWGTTTSPQVNYPKTLQCANIQLRSDEECRQVYPGKITDNMLCAGTKEGGKDSCEGDSGGPLVCNRTLYGIVSWGDFPCGQPDRPGVYTRVSRYVLWIRETIRKYETQQQKWLKGPQ
fluorescence of the substrate VPR-AMC, 10 ng of enzyme (substrate alone 0.5 arbitrary units) [1]: to 1.9 arbitrary units (10 ng of enzyme) | fluorescence of the substrate VPR-AMC, 100 ng of enzyme (substrate alone 0.5 arbitrary units) [1]: to 13.9 arbitrary units (100 ng of enzyme) | fluorescence of the substrate VPR-AMC, 160 ng of enzyme (substrate alone 0.5 arbitrary units) [1]: to 35.5 arbitrary units (160 ng of enzyme) | fluorescence of the substrate FSR-AMC, 10 ng of hK13 (substrate alone 1.1 arbitrary units) [2]: to 1.9 arbitrary units (10 ng of hK13) | fluorescence of the substrate FSR-AMC, 100 ng of hK13 (substrate alone 1.1 arbitrary units) [2]: to 6.9 arbitrary units (100 ng of hK13) | fluorescence of the substrate FSR-AMC, 160 ng of hK13 (substrate alone 1.1 arbitrary units) [2]: to 14.5 arbitrary units (160 ng of hK13)
